Patent US9587002B2, “Sequence of nucleotides and peptides GSE 24.2 of dyskerin, which can induce telomerase activity, method for obtaining same, therapeutic compositions and applications thereof” (CONSEJO SUPERIOR DE INVESTIGACIONES CIENTIFICAS, priority 2005, dated 2017)
“Also recorded” adds a separate entry of the source.

Columns and labels:
Type in all cases: cell-based, human
[1] = system: p38; assay: Activation of p38 by cisplatin in 293T cell lines (Western blot); conditions: 293T cells stably expressing GSE 24.2 vs pLNCX; cisplatin 6 hours
Protocol: FIG. 2.—Cell viability and activation of the JNK and p38 death pathways in 293T cell lines: pLNCX and 24.2, treated with cisplatin. A) Cell viability. After seeding the 293T cells: expressing the empty vector (pLNCX) and GSE 24.2 (24.2) in 24-well plates, they were incubated with concentrations between 0-100 μg/ml of cisplatin. The cell viability was measured by means of the crystal violet technique after 72 hours of exposure to the drug. The data represent the mean of two experiments performed in quadruplicate. B) Activation kinetics. Subsequently, the activation of JNK and p38 was studied using antibodies that specifically recognise the active forms. As a load control, the levels of JNK-1 were detected.
The pLNCX24-2 plasmid containing GSE of the same name was transfected in a stable manner in the 293T cells and, as a control, the pLNCX empty vector was transfected. After verifying, by means of PCR, that the 24.2 cell line contained this insert (data not shown), the response to cisplatin was studied, creating a viability curve with this drug. […] JNK and p38 are MAPKs that are activated in response to genotoxic agents (Sanchez-Perez et al., 1998).
Western Blot and antibodies. 20 μg of protein were separated in SDS-polyacrylamide gels; subsequently, they were transferred to Immobilon-P membranes (Millipore) by humid transfer. […]

[2] = system: telomerase; assay: Telomerase activity (TRAP) in cells of patients with dyskeratosis congenita; conditions: DC-1, DC-2, DC-3 and carrier parent (DC-C) cells; 24 hours after transfection vs empty vector
Protocol: FIG. 10.—Telomerase activity and expression levels of hTERT and hTR in the cells of patients with dyskeratosis congenita and in VA13 cells transiently transfected with the 24.2 plasmid or the pLNCX empty vector. A) Telomerase activity measured by means of the TRAP assay in the cells of patients with dyskeratosis congenita (DC-1, DC-2 and DC-3) and in the carrier parent (DC-C) following electroporation of 45 μg of the pLNCX empty plasmid (−) or the pLNCX 24.2 vector (+) by 15 million cells. B) RT-PCR of the RNA from cells of one of the patients with dyskeratosis congenita, DC3 transfected with the empty vector and DC3 transfected with the 24.2 plasmid, using oligos specific for hTERT and hTR. As a starting RNA control, oligos for the amplification of GAPDH were used. C) Telomerase activity in VA13 cells. […] 24 hours later, the telomerase activity was analysed as described above, using dilutions of the protein extracts from each transfection. […] RNA levels were detected as described above. […] After 24 h of transfection, the luciferase activity was analyzed as described above. […]
Telomerase activity assay based on the TRAP method Wright et al., 1995). The telomerase activity was measured using the TRAPeze telomerase detection kit (Intergen) in accordance with the instruction manual. […]

[3] = system: hTERT; assay: RT-PCR of hTERT in cells of patients with dyskeratosis congenita; conditions: RT-PCR 24 hours after transfection
Protocol: (§1) FIG. 10.—Telomerase activity and expression levels of hTERT and hTR in the cells of patients with dyskeratosis congenita and in VA13 cells transiently transfected with the 24.2 plasmid or the pLNCX empty vector. A) Telomerase activity measured by means of the TRAP assay in the cells of patients with dyskeratosis congenita (DC-1, DC-2 and DC-3) and in the carrier parent (DC-C) following electroporation of 45 μg of the pLNCX empty plasmid (−) or the pLNCX 24.2 vector (+) by 15 million cells. B) RT-PCR of the RNA from cells of one of the patients with dyskeratosis congenita, DC3 transfected with the empty vector and DC3 transfected with the 24.2 plasmid, using oligos specific for hTERT and hTR. As a starting RNA control, oligos for the amplification of GAPDH were used. C) Telomerase activity in VA13 cells. The cells were transiently transfected with 16 μg of the control pLNCX empty vector, expressing DKC or the GSE 24.2 peptide per million cells. 24 hours later, the telomerase activity was analysed as described above, using dilutions of the protein extracts from each transfection. D) The expression levels of hTERT and hTR in VA13 cells transfected with 16 μg of the different construct per million cells. RNA levels were detected as described above. GAPDH was used as a control. […] After 24 h of transfection, the luciferase activity was analyzed as described above. […]

[4] = system: hTR; assay: RT-PCR of hTR in cells of patients with dyskeratosis congenita; conditions: RT-PCR 24 hours after transfection
Protocol: as §1

B1: GSE 24.2: 165-pb cDNA fragment (nucleotides 268 to 433) of human dyskerin, SEQ ID NO1, encoding peptide SEQ ID NO2, expressed from pLNCX plasmid (nucleic acid, listed as Homo sapiens)
DNA: GGTTTCATTAATCTTGACAAGCCCTCTAACCCCTCTTCCCATGAGGTGGTAGCCTGGATTCGACGGATACTTCGGGTGGAGAAGACAGGGCACAGTGGTACTCTGGATCCCAAGGTGACTGGTTGTTTAATCGTGTGCATAGAACGAGCCACTCGCTTGGTGAAG
modifications: expressed from pLNCX plasmid; CDS (1)..(165) Sequence GSE 24.2
- dose of cisplatin required to activate p38 [1]: a greater dose of cisplatin is required to activate both kinases
- telomerase activity in dyskeratosis congenita cells [2]: an increase in telomerase activity was observed; also recorded: compensates for the defects in telomerase activity
- hTERT expression levels in dyskeratosis congenita cells [3]: an increase in the expression levels was observed
- hTR expression levels in dyskeratosis congenita cells [4]: an increase in the expression levels was observed
